The values below come from patent publication US20090191579A1 (PAIN THERAPEUTICS, published 2009).

The target of this test is MAP1B, endogenous, rat striatum (rat, UniProt P15205 2-2461, limits assumed). The experiment in a line: co-immunoprecipitation (anti-Gα, then anti-MOR) from rat striatum, Western blot.
Sequence of MAP1B, endogenous, rat striatum (P15205 2-2461 limits assumed): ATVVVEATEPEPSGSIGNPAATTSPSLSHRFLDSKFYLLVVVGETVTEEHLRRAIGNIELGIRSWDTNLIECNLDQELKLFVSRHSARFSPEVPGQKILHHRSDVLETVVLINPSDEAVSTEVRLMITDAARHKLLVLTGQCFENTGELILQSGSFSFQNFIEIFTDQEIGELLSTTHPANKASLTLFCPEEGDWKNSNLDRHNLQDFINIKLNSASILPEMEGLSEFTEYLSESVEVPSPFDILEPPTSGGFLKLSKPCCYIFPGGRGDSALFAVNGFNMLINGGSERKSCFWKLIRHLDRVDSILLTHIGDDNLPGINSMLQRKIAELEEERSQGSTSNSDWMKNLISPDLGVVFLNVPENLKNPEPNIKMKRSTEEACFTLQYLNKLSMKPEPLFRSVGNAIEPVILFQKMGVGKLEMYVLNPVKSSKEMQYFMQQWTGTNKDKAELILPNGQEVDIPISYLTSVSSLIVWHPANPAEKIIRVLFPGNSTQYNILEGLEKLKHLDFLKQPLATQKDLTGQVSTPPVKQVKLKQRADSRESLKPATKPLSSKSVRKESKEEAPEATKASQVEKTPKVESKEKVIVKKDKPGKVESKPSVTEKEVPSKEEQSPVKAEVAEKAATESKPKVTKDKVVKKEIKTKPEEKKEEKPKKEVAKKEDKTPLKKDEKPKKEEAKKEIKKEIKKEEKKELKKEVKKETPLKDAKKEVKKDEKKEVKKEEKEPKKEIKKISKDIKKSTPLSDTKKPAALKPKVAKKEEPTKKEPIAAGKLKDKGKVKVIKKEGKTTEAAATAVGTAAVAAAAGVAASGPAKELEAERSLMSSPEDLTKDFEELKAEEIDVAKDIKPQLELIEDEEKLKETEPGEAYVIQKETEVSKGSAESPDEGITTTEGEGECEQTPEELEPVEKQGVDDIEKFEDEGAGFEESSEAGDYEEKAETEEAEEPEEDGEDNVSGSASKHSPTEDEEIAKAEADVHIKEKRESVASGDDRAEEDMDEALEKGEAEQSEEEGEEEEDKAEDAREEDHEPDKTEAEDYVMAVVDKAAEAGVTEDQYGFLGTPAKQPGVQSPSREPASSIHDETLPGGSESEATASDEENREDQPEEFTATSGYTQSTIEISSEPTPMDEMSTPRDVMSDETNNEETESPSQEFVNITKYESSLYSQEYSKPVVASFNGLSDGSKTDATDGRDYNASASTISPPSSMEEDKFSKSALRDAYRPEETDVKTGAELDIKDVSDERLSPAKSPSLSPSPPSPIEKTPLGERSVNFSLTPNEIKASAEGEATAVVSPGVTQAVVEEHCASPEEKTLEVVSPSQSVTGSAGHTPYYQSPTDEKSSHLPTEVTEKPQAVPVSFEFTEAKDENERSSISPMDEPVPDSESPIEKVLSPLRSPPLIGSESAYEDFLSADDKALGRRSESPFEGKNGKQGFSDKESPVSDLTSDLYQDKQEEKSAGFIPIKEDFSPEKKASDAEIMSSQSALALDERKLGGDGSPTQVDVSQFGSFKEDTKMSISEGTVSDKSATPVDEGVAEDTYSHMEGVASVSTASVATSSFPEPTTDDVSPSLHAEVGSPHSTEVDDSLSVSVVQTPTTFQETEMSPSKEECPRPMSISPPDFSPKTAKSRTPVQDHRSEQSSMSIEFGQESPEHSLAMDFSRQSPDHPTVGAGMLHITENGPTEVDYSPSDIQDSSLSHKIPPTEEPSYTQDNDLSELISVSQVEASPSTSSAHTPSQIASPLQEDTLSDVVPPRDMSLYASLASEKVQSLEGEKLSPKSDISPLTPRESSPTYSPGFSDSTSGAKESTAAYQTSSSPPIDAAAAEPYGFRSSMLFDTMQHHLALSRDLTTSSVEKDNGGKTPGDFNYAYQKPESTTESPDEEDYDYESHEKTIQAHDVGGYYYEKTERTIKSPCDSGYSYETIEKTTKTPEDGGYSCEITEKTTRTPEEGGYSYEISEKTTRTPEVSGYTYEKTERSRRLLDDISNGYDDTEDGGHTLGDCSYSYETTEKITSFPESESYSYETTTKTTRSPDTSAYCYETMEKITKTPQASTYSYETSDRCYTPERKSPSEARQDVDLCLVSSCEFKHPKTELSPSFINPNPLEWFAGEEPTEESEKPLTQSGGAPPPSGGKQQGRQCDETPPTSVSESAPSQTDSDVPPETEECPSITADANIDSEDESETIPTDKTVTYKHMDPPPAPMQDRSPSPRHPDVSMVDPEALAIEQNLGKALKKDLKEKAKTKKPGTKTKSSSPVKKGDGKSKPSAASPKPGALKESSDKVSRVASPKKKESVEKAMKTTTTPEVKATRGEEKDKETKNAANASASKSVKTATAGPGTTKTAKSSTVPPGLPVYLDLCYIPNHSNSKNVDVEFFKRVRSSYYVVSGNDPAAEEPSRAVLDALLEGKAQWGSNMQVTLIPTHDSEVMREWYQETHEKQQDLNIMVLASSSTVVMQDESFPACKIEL

B1: mu opioid receptor (MOR), endogenous, rat striatum (receptor, UniProt P33535 1-398, looked up)
chain: MDSSTGPGNTSDCSDPLAQASCSPAPGSWLNLSHVDGNQSDPCGLNRTGLGGNDSLCPQTGSPSMVTAITIMALYSIVCVVGLFGNFLVMYVIVRYTKMKTATNIYIFNLALADALATSTLPFQSVNYLMGTWPFGTILCKIVISIDYYNMFTSIFTLCTMSVDRYIAVCHPVKALDFRTPRNAKIVNVCNWILSSAIGLPVMFMATTKYRQGSIDCTLTFSHPTWYWENLLKICVFIFAFIMPVLIITVCYGLMILRLKSVRMLSGSKEKDRNLRRITRMVLVVVAVFIVCWTPIHIYVIIKALITIPETTFQTVSWHFCIALGYTNSCLNPVLYAFLDENFKRCFREFCIPTSSTIEQQNSTRVRQNTREHPSTANTVDRTNHQLENLEAETAPLP
notes: Endogenous receptor immunoprecipitated with anti-MOR or detected with anti-MOR in anti-Gα immunoprecipitates; also called µ opioid receptor
For B1, the binding result is “no binding”.
